Test results reported in patent US20110118447A1.

Molecular target: binding partner of C5A (XPA23)
Assay: Biacore K-off

Binder | fold difference in affinity vs original [fold]
C5A (XPA23) VL P95D (antibody, V domains shown) VH: EVQLLESGGGLVQPGGSLRLSCAASGFTFSKYFMFWVRQAPGKGLEWVSVISPSGGMTRYADSVKGRFTISRDNSKNTLYLQMNSLRAEDTAVYYCARVGYGGNSDYWGQGTLVTVSS VL: DIQMTQSPSSVSASVGDRLTIICRASQDINRWLAWYQQTPGNAPKLLIHSATSLQSGVPSRFSGSGSGTDFTLTINSLQPEDFATYYCQQADSFDLTFGGGTKVEIK | 1.32
C5A (XPA23) VL D92N (antibody, V domains shown) VH: EVQLLESGGGLVQPGGSLRLSCAASGFTFSKYFMFWVRQAPGKGLEWVSVISPSGGMTRYADSVKGRFTISRDNSKNTLYLQMNSLRAEDTAVYYCARVGYGGNSDYWGQGTLVTVSS VL: DIQMTQSPSSVSASVGDRLTIICRASQDINRWLAWYQQTPGNAPKLLIHSATSLQSGVPSRFSGSGSGTDFTLTINSLQPEDFATYYCQQANSFPLTFGGGTKVEIK | 0.67
C5A (XPA23) VL S93Y (antibody, V domains shown) VH: EVQLLESGGGLVQPGGSLRLSCAASGFTFSKYFMFWVRQAPGKGLEWVSVISPSGGMTRYADSVKGRFTISRDNSKNTLYLQMNSLRAEDTAVYYCARVGYGGNSDYWGQGTLVTVSS VL: DIQMTQSPSSVSASVGDRLTIICRASQDINRWLAWYQQTPGNAPKLLIHSATSLQSGVPSRFSGSGSGTDFTLTINSLQPEDFATYYCQQADYFPLTFGGGTKVEIK | 1.45
C5A (XPA23) VL A91S (antibody, V domains shown) VH: EVQLLESGGGLVQPGGSLRLSCAASGFTFSKYFMFWVRQAPGKGLEWVSVISPSGGMTRYADSVKGRFTISRDNSKNTLYLQMNSLRAEDTAVYYCARVGYGGNSDYWGQGTLVTVSS VL: DIQMTQSPSSVSASVGDRLTIICRASQDINRWLAWYQQTPGNAPKLLIHSATSLQSGVPSRFSGSGSGTDFTLTINSLQPEDFATYYCQQSDSFPLTFGGGTKVEIK | 0.9
C5A (XPA23) VL S93K (antibody, V domains shown) VH: EVQLLESGGGLVQPGGSLRLSCAASGFTFSKYFMFWVRQAPGKGLEWVSVISPSGGMTRYADSVKGRFTISRDNSKNTLYLQMNSLRAEDTAVYYCARVGYGGNSDYWGQGTLVTVSS VL: DIQMTQSPSSVSASVGDRLTIICRASQDINRWLAWYQQTPGNAPKLLIHSATSLQSGVPSRFSGSGSGTDFTLTINSLQPEDFATYYCQQADKFPLTFGGGTKVEIK | 0.86
C5A (XPA23) VL S93T (antibody, V domains shown) VH: EVQLLESGGGLVQPGGSLRLSCAASGFTFSKYFMFWVRQAPGKGLEWVSVISPSGGMTRYADSVKGRFTISRDNSKNTLYLQMNSLRAEDTAVYYCARVGYGGNSDYWGQGTLVTVSS VL: DIQMTQSPSSVSASVGDRLTIICRASQDINRWLAWYQQTPGNAPKLLIHSATSLQSGVPSRFSGSGSGTDFTLTINSLQPEDFATYYCQQADTFPLTFGGGTKVEIK | 1.47
C5A (XPA23) VL D92Q (antibody, V domains shown) VH: EVQLLESGGGLVQPGGSLRLSCAASGFTFSKYFMFWVRQAPGKGLEWVSVISPSGGMTRYADSVKGRFTISRDNSKNTLYLQMNSLRAEDTAVYYCARVGYGGNSDYWGQGTLVTVSS VL: DIQMTQSPSSVSASVGDRLTIICRASQDINRWLAWYQQTPGNAPKLLIHSATSLQSGVPSRFSGSGSGTDFTLTINSLQPEDFATYYCQQAQSFPLTFGGGTKVEIK | 0.56
C5A (XPA23) VL S93D (antibody, V domains shown) VH: EVQLLESGGGLVQPGGSLRLSCAASGFTFSKYFMFWVRQAPGKGLEWVSVISPSGGMTRYADSVKGRFTISRDNSKNTLYLQMNSLRAEDTAVYYCARVGYGGNSDYWGQGTLVTVSS VL: DIQMTQSPSSVSASVGDRLTIICRASQDINRWLAWYQQTPGNAPKLLIHSATSLQSGVPSRFSGSGSGTDFTLTINSLQPEDFATYYCQQADDFPLTFGGGTKVEIK | 4.59
C5A (XPA23) VL D92H (antibody, V domains shown) VH: EVQLLESGGGLVQPGGSLRLSCAASGFTFSKYFMFWVRQAPGKGLEWVSVISPSGGMTRYADSVKGRFTISRDNSKNTLYLQMNSLRAEDTAVYYCARVGYGGNSDYWGQGTLVTVSS VL: DIQMTQSPSSVSASVGDRLTIICRASQDINRWLAWYQQTPGNAPKLLIHSATSLQSGVPSRFSGSGSGTDFTLTINSLQPEDFATYYCQQAHSFPLTFGGGTKVEIK | 0.63
C5A (XPA23) VL S93E (antibody, V domains shown) VH: EVQLLESGGGLVQPGGSLRLSCAASGFTFSKYFMFWVRQAPGKGLEWVSVISPSGGMTRYADSVKGRFTISRDNSKNTLYLQMNSLRAEDTAVYYCARVGYGGNSDYWGQGTLVTVSS VL: DIQMTQSPSSVSASVGDRLTIICRASQDINRWLAWYQQTPGNAPKLLIHSATSLQSGVPSRFSGSGSGTDFTLTINSLQPEDFATYYCQQADEFPLTFGGGTKVEIK | 3.71
C5A (XPA23) VL A91H (antibody, V domains shown) VH: EVQLLESGGGLVQPGGSLRLSCAASGFTFSKYFMFWVRQAPGKGLEWVSVISPSGGMTRYADSVKGRFTISRDNSKNTLYLQMNSLRAEDTAVYYCARVGYGGNSDYWGQGTLVTVSS VL: DIQMTQSPSSVSASVGDRLTIICRASQDINRWLAWYQQTPGNAPKLLIHSATSLQSGVPSRFSGSGSGTDFTLTINSLQPEDFATYYCQQHDSFPLTFGGGTKVEIK | 1.12

Next, values leading:

fold difference in affinity vs original [fold] | Binder
0.1 | C5A (XPA23) VL A91E (antibody, V domains shown) VH: EVQLLESGGGLVQPGGSLRLSCAASGFTFSKYFMFWVRQAPGKGLEWVSVISPSGGMTRYADSVKGRFTISRDNSKNTLYLQMNSLRAEDTAVYYCARVGYGGNSDYWGQGTLVTVSS VL: DIQMTQSPSSVSASVGDRLTIICRASQDINRWLAWYQQTPGNAPKLLIHSATSLQSGVPSRFSGSGSGTDFTLTINSLQPEDFATYYCQQEDSFPLTFGGGTKVEIK
0.23 | C5A (XPA23) VL D92K (antibody, V domains shown) VH: EVQLLESGGGLVQPGGSLRLSCAASGFTFSKYFMFWVRQAPGKGLEWVSVISPSGGMTRYADSVKGRFTISRDNSKNTLYLQMNSLRAEDTAVYYCARVGYGGNSDYWGQGTLVTVSS VL: DIQMTQSPSSVSASVGDRLTIICRASQDINRWLAWYQQTPGNAPKLLIHSATSLQSGVPSRFSGSGSGTDFTLTINSLQPEDFATYYCQQAKSFPLTFGGGTKVEIK
1.08 | C5A (XPA23) VL S93H (antibody, V domains shown) VH: EVQLLESGGGLVQPGGSLRLSCAASGFTFSKYFMFWVRQAPGKGLEWVSVISPSGGMTRYADSVKGRFTISRDNSKNTLYLQMNSLRAEDTAVYYCARVGYGGNSDYWGQGTLVTVSS VL: DIQMTQSPSSVSASVGDRLTIICRASQDINRWLAWYQQTPGNAPKLLIHSATSLQSGVPSRFSGSGSGTDFTLTINSLQPEDFATYYCQQADHFPLTFGGGTKVEIK
0.34 | C5A (XPA23) VL D92T (antibody, V domains shown) VH: EVQLLESGGGLVQPGGSLRLSCAASGFTFSKYFMFWVRQAPGKGLEWVSVISPSGGMTRYADSVKGRFTISRDNSKNTLYLQMNSLRAEDTAVYYCARVGYGGNSDYWGQGTLVTVSS VL: DIQMTQSPSSVSASVGDRLTIICRASQDINRWLAWYQQTPGNAPKLLIHSATSLQSGVPSRFSGSGSGTDFTLTINSLQPEDFATYYCQQATSFPLTFGGGTKVEIK
1.54 | C5A (XPA23) VL S93Q (antibody, V domains shown) VH: EVQLLESGGGLVQPGGSLRLSCAASGFTFSKYFMFWVRQAPGKGLEWVSVISPSGGMTRYADSVKGRFTISRDNSKNTLYLQMNSLRAEDTAVYYCARVGYGGNSDYWGQGTLVTVSS VL: DIQMTQSPSSVSASVGDRLTIICRASQDINRWLAWYQQTPGNAPKLLIHSATSLQSGVPSRFSGSGSGTDFTLTINSLQPEDFATYYCQQADQFPLTFGGGTKVEIK
0.1 | C5A (XPA23) VL A91N (antibody, V domains shown) VH: EVQLLESGGGLVQPGGSLRLSCAASGFTFSKYFMFWVRQAPGKGLEWVSVISPSGGMTRYADSVKGRFTISRDNSKNTLYLQMNSLRAEDTAVYYCARVGYGGNSDYWGQGTLVTVSS VL: DIQMTQSPSSVSASVGDRLTIICRASQDINRWLAWYQQTPGNAPKLLIHSATSLQSGVPSRFSGSGSGTDFTLTINSLQPEDFATYYCQQNDSFPLTFGGGTKVEIK
0.67 | C5A (XPA23) VL A91T (antibody, V domains shown) VH: EVQLLESGGGLVQPGGSLRLSCAASGFTFSKYFMFWVRQAPGKGLEWVSVISPSGGMTRYADSVKGRFTISRDNSKNTLYLQMNSLRAEDTAVYYCARVGYGGNSDYWGQGTLVTVSS VL: DIQMTQSPSSVSASVGDRLTIICRASQDINRWLAWYQQTPGNAPKLLIHSATSLQSGVPSRFSGSGSGTDFTLTINSLQPEDFATYYCQQTDSFPLTFGGGTKVEIK
0.99 | C5A (XPA23) VL D92E (antibody, V domains shown) VH: EVQLLESGGGLVQPGGSLRLSCAASGFTFSKYFMFWVRQAPGKGLEWVSVISPSGGMTRYADSVKGRFTISRDNSKNTLYLQMNSLRAEDTAVYYCARVGYGGNSDYWGQGTLVTVSS VL: DIQMTQSPSSVSASVGDRLTIICRASQDINRWLAWYQQTPGNAPKLLIHSATSLQSGVPSRFSGSGSGTDFTLTINSLQPEDFATYYCQQAESFPLTFGGGTKVEIK
0.91 | C5A (XPA23) VL S93R (antibody, V domains shown) VH: EVQLLESGGGLVQPGGSLRLSCAASGFTFSKYFMFWVRQAPGKGLEWVSVISPSGGMTRYADSVKGRFTISRDNSKNTLYLQMNSLRAEDTAVYYCARVGYGGNSDYWGQGTLVTVSS VL: DIQMTQSPSSVSASVGDRLTIICRASQDINRWLAWYQQTPGNAPKLLIHSATSLQSGVPSRFSGSGSGTDFTLTINSLQPEDFATYYCQQADRFPLTFGGGTKVEIK
6.59 | C5A (XPA23) VL D92S (antibody, V domains shown) VH: EVQLLESGGGLVQPGGSLRLSCAASGFTFSKYFMFWVRQAPGKGLEWVSVISPSGGMTRYADSVKGRFTISRDNSKNTLYLQMNSLRAEDTAVYYCARVGYGGNSDYWGQGTLVTVSS VL: DIQMTQSPSSVSASVGDRLTIICRASQDINRWLAWYQQTPGNAPKLLIHSATSLQSGVPSRFSGSGSGTDFTLTINSLQPEDFATYYCQQASSFPLTFGGGTKVEIK
3.76 | C5A (XPA23) VL S93N (antibody, V domains shown) VH: EVQLLESGGGLVQPGGSLRLSCAASGFTFSKYFMFWVRQAPGKGLEWVSVISPSGGMTRYADSVKGRFTISRDNSKNTLYLQMNSLRAEDTAVYYCARVGYGGNSDYWGQGTLVTVSS VL: DIQMTQSPSSVSASVGDRLTIICRASQDINRWLAWYQQTPGNAPKLLIHSATSLQSGVPSRFSGSGSGTDFTLTINSLQPEDFATYYCQQADNFPLTFGGGTKVEIK
